In US20030219718, “Inhibitors of the S100-p53 protein-protein interaction and method of inhibiting cancer employing the same” (UNIVERSITY OF MARYLAND, BALTIMORE, published 2003):

Target: p53 (UniProt P04637 P04637:1-393)
Assay: EMSA; supershifted by p53 antibody; five times more protein and DNA needed than for GADD45; salmon sperm DNA 1.0 µg
Conditions: tags: baculovirus expressed, Protein Sciences Inc; chain copies: 4; label: T4 polynucleotide kinase end label
Method: Accordingly, mobility shift assays were performed with purified p53 to determine if these sequences in the promoter of S100B were bona fide p53 binding sites, using the GADD45 sequence as a positive control. […] The baculovirus expressed p53 was obtained from Protein Sciences Inc. (Baltimore, Md.). Baculovirus expressed p53 was used (0.6 and 3.0 μg) for binding to the GADD45 and the S100B oligonucleotides respectively.

Chain of p53 (P04637 whole entry, one chain of several): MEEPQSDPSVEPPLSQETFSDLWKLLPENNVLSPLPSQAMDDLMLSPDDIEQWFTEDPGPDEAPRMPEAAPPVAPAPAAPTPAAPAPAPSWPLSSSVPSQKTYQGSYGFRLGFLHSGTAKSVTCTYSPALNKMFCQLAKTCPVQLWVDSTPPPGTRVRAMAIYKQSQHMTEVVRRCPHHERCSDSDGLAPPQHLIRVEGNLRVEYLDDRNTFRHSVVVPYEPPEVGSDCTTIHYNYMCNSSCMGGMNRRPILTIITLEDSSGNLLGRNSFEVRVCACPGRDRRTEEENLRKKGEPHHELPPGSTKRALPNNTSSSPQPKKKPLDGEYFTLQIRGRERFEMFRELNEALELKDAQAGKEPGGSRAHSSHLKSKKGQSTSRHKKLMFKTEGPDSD

B1: S100B promoter p53 site (20/20 match, nt 1705-1735) (dsDNA)
DNA 1: GCCTGGGCAAGCTCTGTGCTTCACAGAGCAAGCCTGTGT
DNA 2: ACACAGGCTTGCTCTGTGAAGCACAGAGCTTGCCCAGGC
- binding result: binds
